Measured values: a protein production outcome set (Wang et al. 2014)

Assay: label from the status in PepcDB records

Sequence | protein production
MTESESASGMDGVVLGGTASGVGKTVATLAVARALADAGHDVQPAKAGPDFIDPSHHEPVVGTPSRSLDPWLSGTDGMRRTYHQGDGDVCVVEGMMGLYDGSVASTARVASELDLPVVLVVDASAGMQSVAATALGFQAYAAEASVDVDVAGVLAQRAHGGRHADGIRDALPDSLTYFGRVPPRDDLDVPDRHLGLHMGSEAAIDDDAVDAAAAHVAAKRIADVARTPPRPPAHDPAPDTGQTVAVADDAAFCFAYPATRERLRERADVVTFSPVAGDDLPACDGVYLPGGYPELHTDALADAPALDTLGARAADGLPVLGECGGLMALAESLTTTDGDTAEMAGVLPADVRMQDRYQALDHVELRATGDTLTAGSGATLRGHEFHYSAATVASDARFAFAVERGDGIDGDHDGLTEYRTLGTYAHVHPESTAFDAFLDAL | failed
MSKDSNKIIEQSREIGISIIMPLYNVEEVILETLESIHEQTFDSYEVLLIDDGSTDKTIEIVTEYIKDKPRFKLYTQPNGGPASARNHGLRLAIGMYICFVDSDDILPNYSLQLMYDGAISTGAKLITGATKRFNSEGEWFIPMHIQYNIAKPGMKTLLKNPELFYSIGPCAKLYHHSLIDGVFFPENIRYGEDQPFVLHALLQAKDIYTVEKVVYYYRLRDGESQSLTQSVDKDPIRILKSVFQIFDYGEEELKKNNTDYEVALKYYQRVSSVELWGALRAAIESKKSENQKIAFTMTLDWLKTKSDDFLNIIPSFRYFLLFSSIERVRYITKDNKENYRNLIGYLWSRQGEEAKIAFRKTYPIPMKAALQIIENNNWRDARKISFKFIVRRKFKAPILIRKISRGIIFRIATLMPRKKNQVILATERSTTLEGNLLAIYDYMFYNNMPQKVYVFLRKNRNWFEMFQLYYTLGRTKTIVLDDYYNKIYGLKFNKNTHVVQSWHATGAFKKFGFSALEGTDANTEEFETRAHSPYTDVLVSSEGIIPEYMEAFRKQANQIKPIGVPRTDVFFDDEYVNYTKEKYMKMYPQLRDKKILLYAPTFRGGPNERFNYSVVLDIAALKKELGDTHILILKFHPVIKNVSFNVEEDDPFILNLTLNNDINDLMLFSDALITDYSSVIFEFSLMNKPIYFFAYDIDDYLDERGFYFDYKATIPGEVFRDTPSLIEAVKSGLYNYDELEIFKKKFVGSLDGNSTKRFVETYIGKANEKVKDILEHHHHHH | not failed
MMRQVRRGATPPPGPGPSAPPYGAGVPQQPSYTDGQGHGGDGYDSGYNTGQVYGGGGGGQGPGRQVRDRPAPDWRRRIKWTAITVVTVLVVTTVGTYFWADSKLNRDVDLSKVIDRPAAGEGTNYLIVGSDSREGMSKDQMKDLHTGYAEGKRTDSMMILHTGDNGSTLISLPRDSDVEIPSFVGSESGKKYPGTGRHTKLNAAYAEDGPELLVRTVEHNTGLRLDHYVEIGFGGFANIVDAVGGVEIDIPQDIKDKKSGADLKKGKQTLDGQEALAFVRTRYALAGSDLDRTKNQQKFLSALASQVATPSTVLNPFRLYPTMGAGLDSLVVDKDMGLFDLASMFWAMKSVSGGEGTSMNMPISGSVGGNLKWDDAKVKKLVEELKNDEKVTVSGNN | failed
MNMQKCDSTQEQQLTFEPRGHQLTNINVWTPDSQWLAYDVRPNSSTFSGLTIERVNCITGDIEVIYRSQHGAHVGVVTVSPDMPARYVFIHGPEHPDNHWHYDFHHRRGVIVTEPDRELAVTLDAMDITPPFTPGALRGGSHVHVFSPDGSRLSFTYNDHVLHEQDPALDCRNVAVALPLHGVNPPKQHPREYDGSHFCVLVTRTTPTPLAGSDQISRAYEEGWIGSQGYLKMDGTRQRWALAFIGDTLSAQGEKIPEIFIADLPEHERDYARAGEEPLEGTQTTMPAPPAGVRQRRLTFTAERHFPGLATSPRHWLRTSPDGSAIACLMKDDEGVVQLWLVSPNGGEPRQLTFTEGGIQSAFSWHPQGHSLVFVCDNSVMQCDSTTGQLWRLTARSAIAPMADAVVFSPDGTKVAFMREIDGLAQIFTVKVD | failed
MNIKLKRTLISLVAFSMTCLPFVGTGSSVKAASNDATINVAAKHQTIRGFGASSAWCGALSDTCMDTLYKNAGLDILRVRIAPNEGWNRGDYRAWADELSNAKKVRARGGIVFATPWTPPASMKTNNTTTGANKGSLKPSSYAAYAAYLKTFVKYMSDNGAPLYALSLQNEPDWAPDYDACTWTAQQFHDFLKQYGASLSSTIKIIMPESLGFNPAMSDPTLNDPTTAQYVSIIGGHLYGSPIRDYPLARNKGKDIWMTEHYLEGNDPGTCVKLAKEIHDCMTIGNMNAYVYWWISGDQNGLYNTRTNETYKKTYVMGQFSKFIGNGYSRVDATNSPQSNVYVSAYTGNNKVVIVAINQGTYPVNQSFNVQNSTVSNVSSWVSSGTLNMAKTNSNISAANGRFNASLPAQSVTTFVADLNSTNPTTDPTTNPTPGSTVTLNNGWYYIKNINAQKYLQVASNTGKAGQNVELGSGSGAAGQKWYLTNTGDGYVTLKSALGNYMLDVSYGENKDGSNIQIFNAYSGDAQKFSVKASSKDGQYFVSTKSSNGTKVLDDYNFGTADGTNVCQWTYGGNANQLWAFEPTNN | failed
MAPRDIRPGAEYGDIIEEAIVTCKVFLIVFSETSQISRWVRSELNIGFSSNKPIIPFRIDPTDLKGSMKLMLNDKHWLNAYPNPEEKFSELAAVILDLLQHPAVDTISPPGFQPASNVASADGSNAGAQGLFGKLLNQLFVKRRVKVTSDHAAEIFLNGERKGKLDAYETGNYSVSEDFYQLEVYSCEYGKKVKCEYSGSFSNSSTVIISVDMATAEKQYLMKAKNITSGQINDLGIIFLDEGKFEDAQECFLKAASMGEAAAAYNLGMMYHFGKGVEIDYDVAREYYEEAVKSDYPLALNNLGSIYYNGHGVRKDIAKSFPYFCRAAERGVESAQFTVATMLFYGQGVAVDKAKAKKWFQKAAAQGCKDSQNYLNSWVDDLEHHHHHH | not failed
MAEKLLHTAESDAGIGSWVLHMESGRLEWSQAVHDIFGTDSATFDATEDAYFQRVHPDDRARVRRELDRHVLGDRPFDVEYRIVRPDGQVRELLERNHIQRQASGQVDHLWGTVIDMTEHKQLKRQLQLSQLAVEHCSEGIAIADEGLDWLYVNPALARMGGLTMADPSQLSGLFMAPGVEARLEREALRELLDASGAWQGELLLARRGAAPLPVLASATRLRDEDGRLLSVWVVSDISGMKESERRLHALAFFDGLTGLANRALFGERLRWHLQNEPAGGRLAILFLDLNGFKQVNDLLGHEAGDQVLREVARRLQAGCRPGELAARWGGDEFAVLLPGVADDAVLAARLRELREAARAERWGGGRWLRVSASLGAAVYPESAEDAERLIQLADRAMYRAKSEGGGQVWLHDGGGLRTLAGADCGA | failed
MKTKTLNTNRFIKLSLLSAIAVILMYIDFPVIPIFPWLKIDLSDVPALMGAFAFGPLAGVIIELMKNLLILIVKGTGTGFVGELANFLVGVALVWPAALVYKKNKTKKTAILGMVLGVLCIEVVGILANVYLLLPAYGMAMSKAELMQYVTVGLIPFNGIKSILVCGITYALYKKVSVSIFKVEPMLDKPKQMKENLG | failed
MGQIQQPIQGYDSTSPCGDNRDPQPFDFNFIFAFQPIVNIKNGHIYAQEALVRGLKGEGAHSILSRIDENNRYSFDQKARDKALQSALSCNWDGAISINFMPNAVYYPEYCLSQTLSTCEKLGINPARLIFEWSEKEYLTEYDHIRHVISRYKHLNFKVAFDDFGGLYSNFNLLTAYHPDIIKLDRHYVVGIEHDKRRRAVVKAMVGLCRDLGIDFVVEGVETIEEFKVLQDLGVDLMQGFLLARPALMQMPQATMPP | failed
MKAEFEEASGLTAGNPVRMKGVNVGSVESIRLNQETQTVRARLRIEEGIRIPEGSHAKVAGFSGIGGVRISILPGPRENPPLPPDATLSAPPEGSVFDRLTDQAPALANKADSVLTSTNTTMSALSTQLQDPDSDLRQALTSAKNITGDLESVTEAEKETLRALLQNLQSVSSDLDTFMGENGDSLDVAVRRLNESLDRLNRGLASLEQTSATLDTVATKLNEGDGTAGRLLNDPSLYLRLDSAAARTNTLLQDFQRDPGRYLNDMTLVKVF | failed
MSLANQTTKTLGLVMPSSASKAFQNPFFPEVIRGISSFAHVEGYALYMSTGETEEEIFNGVVKMVQGRQIGGIILLYSRENDRIIQYLHEQNFPFVLIGKPYDRKDEITYVDNDNYTAAREVAEYLISLGHKQIAFIGGGSDLLVTRDRLAGMSDALKLADIVLPKEYILHFDFSRESGQQAVEELMGLQQPPTAIMATDDLIGLGVLSALSKKGFVVPKDVSIVSFNNALLSEIASPPLSTVDVNIYQLGYEAAKALVDKVENAESTAKCIIIPHKLLKRQTCEGHHHHHH | not failed
MSKPPPKPVKPGQVKVFRALYTFEPRTPDELYFEEGDIIYITDMSDTSWWKGTCKGRTGLIPSNYVAEQAESIDNPLHEAAKRGNLSWLRECLDNRVGVNGLDKAGSTALYWACHGGHKDIVEVLFTQPNVELNQQNKLGDTALHAAAWKGYADIVQLLLAKGARTDLRNNEKKLALDMATNAACASLLKKKQQGTDGARTLSNAEDYLDDEDSD | failed
MAEKEKKTKKKKKKEKHQSSDISFKPSSDVKGLKFGGQIIVKSFTIRRARTFELLKLLSLPSSSSPPLLSTAAYLPTNFTILAHHAWHTLTLGLGTRKSKVVVFVFETEAMKSSVVAAEGGIWPSEIPLGDVNKKMIRKLKNWEMARFKFRKGCITFYVYAVRNAGNEGFAAAEDLKVILQAVVALKDFMDHTAMLVMPHQKSINYSSCPPFAMAH | failed
MNSIWKQYIDILQGVVKPALGCTEPICAAYAASVATQMLGSKPETIDVFVSDNLYKNSMGVFVPRTGRVGLAIAAATGAIGGNPDAGLEVLAKITEEEVDEAQKLIDNGCVVVQRETTDEFIYCRVIAKNAVHNAEVTISGGHTLIIEKRLDDNVIFTLDSSLPKTSTASICDGVDITISSIYDFATQAEFDDIKFILEAKELNIALAQEGLNNPYGLEVGRTYQKNIEKGLLAKSLDSDILIYTSAASDARMGGATLPAMSNYGSGNQGIAATIPVVKMADFFNADDEKLARAFIMSHLGAIYIKSHYPPLSAFCGNAVTSAAASMAMVYLAGGTFEQSCSAIQNTISDTSGMICDGAKSTCAMKVGSSAQSAMKSALLALNDHCVTKQGVIADDVEKTIKNIGRMITTGMPNIDHEIIEIMAS | failed
MFKPEEMVKIELISLARYRDIIMTYLHERGVVQLEEVPIEDIQHDAPNEYYRKATSYSITMGRLVDTLKGFLPPRKTSIKEFIFPKEREKRVYTYRGIEDLVKDVEKFLSEVEPKIREVETQLTAINNRIANIREIINTLELLSSLNIEIEYLIPGSFLAIEVGKIERERVEKLIGELKNELGDKVFILRRDLGTISLLVVVTLKEFQGKLTSILAKYGFEKVEIPRERGHPRELIPKYNELLKEEMKKLEEIRKKGREFAEKYYEDLVFYKELMDNERDKANYLSYLARTELTVALVGWLPKKNVEEVVEGIKNLTGGKVYINIREPEPNEIEEVPVKLKNPEFISQFEMLTEMYGVPKYNELDPTPILAFTYSFFFGFMLTDFMYGLLLGIVSALLVKGHSKMKDGTWKFAKIMLWSSVFTMLLGALFGSYFGNALDMAGFKVPRIMDAMEEALTVLIIALAIGLGHLFTGYVLGFIVKWKNGDKVGAILDQLSWILIILGVTLFAISSRIDLPKLAWMSVFGAGAVLFIIGEFKNNGLMALLLVISDFFGFVGNWLSYARLMALALATAGIALVINIMVQMIWGFKIGPVPLGIIVGAIVFIGGHIFSTAINALGAFVHALRLHYVEFFGTFYSGEGRRFEPFAARREISELKIEKPGGE | failed
MNLNNIRSSMTESTKSKDESMRSHLVKPGSVYDGIEPGELGETTESVQDRVRQLESRNSFLEEQCSQIESEKRYLENQKIKYEREIRKLQSELDRMKTSPLIIGTVIDVIKNDRIIVRSSNGPQFLVNVSQYIDEKKLLPGAKVALNQHTLAIAEVIPSTEEPFVAAMEVIESVEVDYDQIGGLDEQIQELQEAVELPLTSPERFARIGIEPPKGVLLYGLPGTGKTLLAKAVAHRTNATFIRVVGSELVQKYIGDGSKLVREIFEMARKKAPSIIFIDELDSIAARRLNETTGADREVQRTLMQLLAEMDGFDKRKNIRIIAATNRPDVLDPAILRPGRFDRLVHVPMPGIEARGKILKIHCEKMTLAEDIDFKKLAKATEGMSGADLKAIATEAGMFAVRRDKELVEMEEFLEAVEKVSMAADTQKMMPSNLPETMFV | failed
